Reference: patent US20230398228A1, “ERIBULIN-BASED ANTIBODY-DRUG CONJUGATES AND METHODS OF USE” (EISAI R&D MANAGEMENT CO., LTD., priority 2016, published 2023)
Read-outs that look alike come from different tables or passages of the source.

How the values were obtained:
[1] = molecular target: human mesothelin (Homo sapiens, UniProt Q13421); assay: ELISA, mesothelin; format: binding; details: MORAb-009 and its ADCs; for EC50: read-out: Antigen Binding ELISA, EC50
Procedure: Recombinant human mesothelin was diluted to 1 μg/mL in coating buffer (50 mM carbonate-bicarbonate buffer, pH 9.6), and coated onto 96-well Maxisorp black plates (Thermo, Cat No. 43711, 100 μL/well) at 4° C., overnight. Coating solution was discarded and the plates were washed three times using 1×PBS with 0.05% Tween-20 (PBST) buffer. Plates were blocked in 300 μL blocking buffer (1% BSA in PBST) at room temperature for 2 hours on an orbital shaker. […] Blocking buffer was discarded and 100 μL/well of diluted antibody was added to the plates. Plates were incubated at room temperature for 2 hours on an orbital shaker. Antibody solution was discarded and plates were washed three times using PBST. 100 μL/well of goat-anti-human IgG (H+L)-HRP (1:10,000 dilution in blocking buffer) solution was added to the plates, and plates were incubated at room temperature for 1 hour on an orbital shaker. Secondary antibody solution was discarded and plates were washed three times using PBST. 100 μL/well of QuantaBlu fluorogenic peroxidase substrate working solution (Thermo, Cat No. 15169) was added to the plates, and plates were incubated at room temperature for 30 min. Fluorescence was read at excitation 325 nm/emission 420 nm using a SpectraMax M5 (Molecular Devices). Data was analyzed using SoftMaxPro 5.4.2 software with 4-parameter fitting.

[2] = test system: NCI-H2110 cells; assay: Crystal Violet cytotoxicity assay (Example 4), NCI-H2110; format: cell-based, human; details: mean of replicate experiments, read-out: Cytotoxicity IC50 (nM), NCI-H2110 (FR^med, MSLN^med)
Procedure: Test reagents were serial diluted 1:3 in 2 mL deep-well dilution plates, starting at 200 nM (10 dilutions total). […] Medium was then discarded. […] Plates were read at 570 nm. Data was analyzed using GraphPad Prism 6.

[3] = test system: A431 cells; assay: Crystal Violet cytotoxicity assay (Example 4), A431 (parental); format: cell-based, human; details: mean of replicate experiments, read-out: Cytotoxicity IC50 (nM), A431 (FR^neg, MSLN^neg)
[4] = SEC-HPLC aggregation analysis; format: physicochemical
Procedure: The antibody aggregation was analyzed by size-exclusion, high-performance liquid chromatography (SEC-HPLC) using an Agilent 1100. The mAb was diluted to 1 mg/mL in DPBS. The antibody (20 μL) was injected onto a TSKgel® SuperSW guard column (4.6 mm×3.5 cm, 4 μm pore size, Tosoh Bioscience), followed by a TSKgel® SuperSW3000 column (4.6 mm×30 cm, 4 μm pore size), eluted from the column with 0.1 M sodium phosphate containing 0.15 M NaCl and 0.05% NaN3, at pH 7.4, at a flow rate of 0.3 mL/min for 20 min. All data were analyzed using Agilent ChemStation software. Percent aggregation was calculated as [PAaggregate/PAtotal]*100, where PA=integrated peak area.
ADC was diluted to 1 mg/mL in DPBS. ADC (10 μL) was then injected onto an Advanced SEC 300A guard column (4.6 mm×3.5 cm, 2.7 μm pore size, Agilent), followed by a AdvancedBio 300A column (4.6 mm×30 cm, 2.7 μm pore size). ADC was eluted from the column with 0.1 M sodium phosphate containing 0.15 M NaCl and 5% IPA, pH 7.4 at a flow rate of 0.25 mL/min for 28 min. All data were analyzed using Agilent ChemStation software. Percent aggregation was calculated as [PAaggregate/PAtotal]*100, where PA=integrated peak area.

[5] = test system: HL-60 cells; assay: Bystander killing assay, Nuclight Red HL-60; format: cell-based, human
Procedure: The day before study commencement, Nuclight™ Green (NLG) IGROV1 cells were seeded at 5,000 cells/well into 96-well round bottom plates, followed by centrifugation at 1,000 rpm for 3 min at room temperature to ensure formation of a cell pellet. The plate was placed in the vessel of an Incucyte Zoom® (EssenBio science) and incubated at 37° C./5% CO2 overnight. The program was set to collect images of cell growth, and to determine total numbers of nuclear green-stained and nuclear red-stained cells as well as phase-confluency of the cells every two hours. […] 50 μL of cytotoxin solution was added to the NLG-IGROV1 cells and incubated for 30 min. During the incubation period, Nuclight™ Red (NLR) HL-60 (FR^neg) cells were diluted to 2×10^5, 1×10^5 or 5×10^4 cell/mL with fresh media. 50 μL of the NLR-HL60 cell suspension or medium alone was added to the NLG-IGROV1 wells, followed by centrifugation at 1,000 rpm for 3 min at room temperature to ensure re-formation of the cell pellet. The plate was placed back into the vessel of Incucyte Zoom (EssenBio science) and incubated at 37° C./5% CO2 for up to 5 days. Relative cell growth of NLG-IGROV1 was determined by comparison to no ADC or free drug alone added samples using green cell counts. Relative cell growth of HL60 was done similarly, except that red cell count was determined. Determination of IC50 values for both NLG-IGROV1 and NLR-HL-60 was determined using Prism (GraphPad).
In order to assess bystander killing activity, an assay was set up using two labeled cell lines. […] Cytotoxicity was monitored by an Incucyte Zoom® cell imager.

Row | Substance | Antigen Binding ELISA, EC50 [1] [µg/mL] | EC50 [1] [nM] | IC50 [2] [nM] | IC50 [3] [nM] | SEC-HPLC Analysis % Aggr. [4] [%] | SEC-HPLC Analysis % Frag. [4] [%] | SEC-HPLC Analysis % Monomer [4] [%] | EC50 ([5]; HL-60 (FR-negative) cells alone, read-out: EC50, HL-60) [nM] | EC50 ([5]; HL-60 co-cultured with IGROV1, read-out: EC50, HL-60 (co-culture with IGROV-1)) [nM]
1 | MORAb009-PEG2-eribulin | 0.00884 | 0.06 | 50 | > 100 | 1.15 | 1.74 | 97.11 | – | –
2 | MORAb009-PEG4-eribulin | 0.0116 | 0.08 | 31.6 | > 100 | 1.03 | 1.84 | 97.13 | – | –
3 | MORAb-003-maleimido-PEG2-Val-Cit-pAB-eribulin [MORAb-202] | – | – | – | – | – | – | – | 39.7 | 0.24
